Data as given in publication PMC6763540 (2013).

T1: Tie2 (Homo sapiens, UniProt Q02763)
T1 chain: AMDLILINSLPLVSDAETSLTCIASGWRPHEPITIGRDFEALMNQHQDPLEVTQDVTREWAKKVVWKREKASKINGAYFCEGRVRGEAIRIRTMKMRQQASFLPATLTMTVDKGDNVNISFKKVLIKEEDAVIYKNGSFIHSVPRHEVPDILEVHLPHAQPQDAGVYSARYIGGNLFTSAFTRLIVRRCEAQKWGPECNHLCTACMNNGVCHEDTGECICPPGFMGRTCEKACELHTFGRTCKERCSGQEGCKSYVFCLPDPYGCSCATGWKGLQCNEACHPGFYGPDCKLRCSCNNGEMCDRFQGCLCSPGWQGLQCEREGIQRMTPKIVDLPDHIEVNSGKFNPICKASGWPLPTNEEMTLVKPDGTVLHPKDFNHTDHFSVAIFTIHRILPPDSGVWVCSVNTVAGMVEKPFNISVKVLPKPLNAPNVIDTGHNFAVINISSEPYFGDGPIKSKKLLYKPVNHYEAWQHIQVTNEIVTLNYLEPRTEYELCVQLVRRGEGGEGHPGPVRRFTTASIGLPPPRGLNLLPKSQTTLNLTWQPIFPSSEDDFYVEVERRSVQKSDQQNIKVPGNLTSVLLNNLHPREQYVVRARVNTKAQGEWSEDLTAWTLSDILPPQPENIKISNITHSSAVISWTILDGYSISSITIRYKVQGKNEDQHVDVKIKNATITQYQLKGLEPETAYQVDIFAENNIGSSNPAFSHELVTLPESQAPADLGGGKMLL


Biological target: T1, Tie2
Assay: SPR (Biacore)

Kd | Binder
3 pM | activated protein C (APC) (protein) chain 1: ANSFLEELRHSSLERECIEEICDFEEAKEIFQNVDDTLAFWSKHVDGDQCLVLPLEHPCASLCCGHGTCIDGIGSFSCDCRSGWEGRFCQREVSFLNCSLDNGGCTHYCLEEVGWRRCSCAPGYKLGDDLLQCHPAVKFPCGRPWKRMEKKRSHL chain 2: LIDGKMTRRGDSPWQVVLLDSKKKLACGAVLIHPSWVLTAAHCMDESKKLLVRLGEYDLRRWEKWELDLDIKEVFVHPNYSKSTTDNDIALLHLAQPATLSQTIVPICLPDSGLAERELNQAGQETLVTGWGYHSSREKEAKRNRTFVLNFIKIPVVPHNECSEVMSNMVSENMLCAGILGDRQDACEGDSGGPMVASFHGTWFLVGLVSWGEGCGLLHNYGVYTKVSRYLDWIHGHIRDKEAPQKSWAP
32 pM | Angiopoietin-2 (Ang2) (protein) YNNFRKSMDSIGKKQYQVQHGSCSYTFLLPEMDNCRSSSSPYVSNAVQRDAPLEYDDSVQRLQVLENIMENNTQWLMKLENYIQDNMKKEMVEIQQNAVQNQTAVMIEIGTNLLNQTAEQTRKLTDVEAQVLNQTTRLELQLLEHSLSTNKLEKQILDQTSEINKLQDKNSFLEKKVLAMEDKHIIQLQSIKEEKDQLQVLVSKQNSIIEELEKKIVTATVNNSVLQKQQHDLMETVNNLLTMMSTSNSAKDPTVAKEEQISFRDCAEVFKSGHTTNGIYTLTFPNSTEEIKAYCDMEAGGGGWTIIQRREDGSVDFQRTWKEYKVGFGNPSGEYWLGNEFVSQLTNQQRYVLKIHLKDWEGNEAYSLYEHFYLSSEELNYRIHLKGLTGTAGKISSISQPGNDFSTKDGDNDKCICKCSQMLTGGWWFDACGPSNLNGMYYPQRQNTNKFNGIKWYYWKGSGYSLKATTMMIRPADF
2 pM | Angiopoietin-1 (Ang1) (protein) HIGCSNQRRSPENSGRRYNRIQHGQCAYTFILPEHDGNCRESTTDQYNTNALQRDAPHVEPDFSSQKLQHLEHVMENYTQWLQKLENYIVENMKSEMAQIQQNAVQNHTATMLEIGTSLLSQTAEQTRKLTDVETQVLNQTSRLEIQLLENSLSTYKLEKQLLQQTNEILKIHEKNSLLEHKILEMEGKHKEELDTLKEEKENLQGLVTRQTYIIQELEKQLNRATTNNSVLQKQQLELMDTVHNLVNLCTKEGVLLKGGKREEEKPFRDCADVYQAGFNKSGIYTIYINNMPEPKKVFCNMDVNGGGWTVIQHREDGSLDFQRGWKEYKMGFGNPSGEYWLGNEFIFAITSQRQYMLRIELMDWEGNRAYSQYDRFHIGNEKQNYRLYLKGHTGTAGKQSSLILHGADFSTKDADNDNCMCKCALMLTGGWWFDACGPSNLNGMFYTAGQNHGKLNGIKWHYFKGPSYSLRSTTMMIRPLDF
